± gives the uncertainty stated by the source.

The series is described as follows: amyloid nucleation score (Sup35N fusion, yeast selection) (log enrichment); library NNK1; higher = more nucleation; inactive = no reads after selection. The gist of the method:
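Random libraries were run with three technical output replicates. In each, psi-negative yeast expressing Sup35N fused to peptides of 20 random codons were induced 24 hours with 100 μM copper sulfate and grown 7 days at 30°C on medium lacking adenine and uracil, and input and output plasmid inserts were Illumina-sequenced. The nucleation score is the DiMSum log enrichment of output over input reads, centred on the mode score of non-aggregating sequences, and sequences under 100 input reads were excluded.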
In the case of MFTIF, the amyloid nucleation score was 0.045 ± 0.3. MFVSDQINYCMSTVAVH showed an amyloid nucleation score of 0.201 ± 0.27.

Substance MGEATGSGISADDVYVQGEY yielded an amyloid nucleation score of 4.26 ± 0.069. Substance MGIHIFSGRSCTIFLLPSLY returned an amyloid nucleation score of -0.582 ± 1.2.

Consider MGIWSFDTVTRGAMTSVGDA, for which the amyloid nucleation score is 0.252 ± 0.62.

Consider MGLPVLVINNHTAKNGVTRA, for which the amyloid nucleation score amounted to 0.711 ± 0.73.

In turn, MGRRRAPRGGFILRYGCPCR came in with an amyloid nucleation score of -0.039 ± 0.73.

With MGVYTCR, the amyloid nucleation score result was “inactive”. For MHEGKRLITGIDWWYVGVCW, the amyloid nucleation score turned out to be 0.094 ± 0.9. On to MHITDGCGG, for which the amyloid nucleation score was -0.456 ± 0.3. The substance MHNIASC returned an amyloid nucleation score of 0.629 ± 0.48.

With MHRYF, the amyloid nucleation score is -0.286 ± 0.37. MHTEFFGGMAHTTLWDVMSP: the amyloid nucleation score is -0.977 ± 0.77. With MHWLDYSFELLDGQ, the amyloid nucleation score was 1.01 ± 0.75. For the substance MIAFYIVLLPVIRGYRSGCK, the amyloid nucleation score entry was “inactive”. MIHEVTLY yielded an amyloid nucleation score of 0.359 ± 0.41. Turning to MILWPS, the amyloid nucleation score was 1.64 ± 0.16. Consider MIMDVVKGFVFRSSINSKRY, for which the amyloid nucleation score amounted to 3.27 ± 0.088.

MINHSEPQHCMYV came in with an amyloid nucleation score of 0.466 ± 0.9. In the case of MISGPNFEVYRLAVINGRSW it was 0.848 ± 0.58. Under MITSDKIGSQWLQCRLKVAC stands -0.43 ± 0.53.

MITSR returned an amyloid nucleation score of 1.11 ± 0.53. In the case of MIVGGNLEEIVNHCYFCVER it was 0.511 ± 0.24; in that of MIVILTGLLSTNGNLS, 1.64 ± 0.39.

The substance MKAVELSPLKYTCLAN registered an amyloid nucleation score of 0.313 ± 0.74. In turn, MKFDYFRRC returned an amyloid nucleation score of -0.471 ± 0.5. For the substance MKFGGLSG, the amyloid nucleation score was -0.171 ± 0.47. MLANSLFFT registered an amyloid nucleation score of -1.23 ± 1.6. On to MLCVGKA, for which the amyloid nucleation score was -1.16 ± 0.64. In the case of MLEDNLRVTTWPY, the amyloid nucleation score is -0.407 ± 0.39. Regarding MLFGC, the amyloid nucleation score is -0.003 ± 0.41. The substance MLFNTHHVYLSTM displayed an amyloid nucleation score of 0.987 ± 0.53. Substance MLKGMQSDSLKLNGDVDPCV had an amyloid nucleation score of 0.175 ± 0.28.

For MLKILNSSFFDTIVYAYITC, the amyloid nucleation score amounted to 3.6 ± 0.081. The substance MLKQMSSLGREEIYVF registered an amyloid nucleation score of -0.314 ± 0.99.

In turn, MLKRVVVLLRPSVRGRVDRV came in with an amyloid nucleation score of -0.11 ± 0.28. Consider MLLRRKNIAGGYMVLEVGLS, for which the amyloid nucleation score was -0.1 ± 0.31. MLMLSGVF returned an amyloid nucleation score of -0.782 ± 0.53. MLRTSARSQRGNRGLAKMGF came in with an amyloid nucleation score of -1.87 ± 2.7.

MLSKIFAHYSWSQAVTRAWG gave an amyloid nucleation score of 1.75 ± 0.58. Regarding MLSYQR, the amyloid nucleation score entry was “inactive”. Under MLVCILSVFDKNPR stands 2.78 ± 0.11; under MLVFNNFEPLFLFVSTWTCQ, 7.11 ± 0.06. For the substance MMDNLVYQRYTCTF, the amyloid nucleation score stood at 0.448 ± 0.79. With MMGASGFF, the amyloid nucleation score is -0.14 ± 0.32. For MMKSRLDPCDNDNFFGRVSH, the amyloid nucleation score is -0.257 ± 0.85. The substance MMLSGFDIIYGIALCPLHVQ registered an amyloid nucleation score of -0.14 ± 0.3. On to MMLSVCISKLTFLVIRDLLV, for which the amyloid nucleation score turned out to be 0.459 ± 0.23.

The substance MMPYQSWDESSSCEDTLKVT registered an amyloid nucleation score of 0.453 ± 0.35. As for MMTACLFIIF, the amyloid nucleation score is 5.925 ± 0.057. MNFDNGDFYWFVTRIISITC had an amyloid nucleation score of 0.99 ± 0.19. In the case of MNGSNRSCLFFCIGCVMPAW it was 7.5 ± 0.081; in that of MNKIITRTRSMATSDSTRHS, 0.052 ± 0.67. In the case of MNKLYITA it was 0.035 ± 0.84; in that of MNKWSG, 1.4 ± 0.63; in that of MNMSKRFLRKLCERSRMPNR, 0.21 ± 0.61. MNNKDDAVYVEHL: the amyloid nucleation score amounted to 0.072 ± 0.23. In turn, MNPGG had an amyloid nucleation score of -0.026 ± 0.21. For MNQLTFRTNRPPSTASVFAR, the amyloid nucleation score was found to be 1.01 ± 0.61.

Turning to MNRYFFYLIRVFLRGYH, the amyloid nucleation score is -0.094 ± 0.64. MNYFVMSHSNKLDASLCWRR yielded an amyloid nucleation score of 1.52 ± 0.25.

For the substance MNYRQLL, the amyloid nucleation score was 0.177 ± 0.7. MPCRARVRDNSLSWTEHTNC returned an amyloid nucleation score of -0.248 ± 0.62.

For MPGRNLRLNKVR, the amyloid nucleation score was found to be 0.273 ± 0.4.

As to MQFNVSWRNGWSRWIGVSDV, the amyloid nucleation score turned out to be 6.519 ± 0.054.

Regarding MQIMRRIMWYDNSKVSF, the amyloid nucleation score was -0.177 ± 0.2. In the case of MRFKRRSGFGELGMFAFTPL it was -0.628 ± 0.5; in that of MRGYPENKLSRSCQCRMRRY, -0.213 ± 0.74; in that of MRLERTNRGSAPWTLYYNQR, 1.09 ± 0.17. In the case of MRLIVNSFTVGYEPRISWYV it was 1.22 ± 0.24; in that of MRSGTVYMVYLVHLKSFKWL, -0.265 ± 0.68. Take MRWIVWYVIS: the amyloid nucleation score was -0.859 ± 1.4. As for MSALARVMLSMRYRIGT, the amyloid nucleation score was -0.395 ± 1.1.

The substance MSDCPACGCSCHRSKLISGF displayed an amyloid nucleation score of -0.414 ± 0.5. Turning to MSDKSTWYC, the amyloid nucleation score was 0.157 ± 0.61. Under MSEVTMGLRTMFVIFNR stands 2.79 ± 0.1. Turning to MSFDGVEYRTCNVYVSVTWG, the amyloid nucleation score is -0.133 ± 0.77. In turn, MSFSCWFLS showed an amyloid nucleation score of 0.445 ± 0.88.

For MSGAESYLHLDLCRVTGIAS, the amyloid nucleation score was -0.24 ± 0.35.

MSHFCLSLGAAASMNPLQLG: the amyloid nucleation score is -0.309 ± 1.1. Under MSLMSPAYNATNYWAVWRHK stands -0.029 ± 0.27; under MSRFLTLMHFERNFV, 0.566 ± 0.42; under MSTVFADLR, -0.292 ± 0.29.

For the substance MSYRD, the amyloid nucleation score is -0.995 ± 1.7. In turn, MTYITTGSSKYEGYKFTCMT yielded an amyloid nucleation score of 0.502 ± 0.51. MVAMVNT showed an amyloid nucleation score of -0.087 ± 0.28.

MVFFTCSEMDVYMWRGYFNY returned an amyloid nucleation score of -0.727 ± 0.28. In turn, MVGNIYSSPFYPRYSLTNGT registered an amyloid nucleation score of -0.161 ± 0.83. In the case of MVGRVARRVTMSVCSAVSGV it was -0.237 ± 0.45; in that of MVMFHSSFLIDDTWICWNPF, 0.255 ± 0.47. MVSLDWTSQLGR registered an amyloid nucleation score of 2.18 ± 0.54. In the case of MVSNAGDIPMRRLESLRLLR it was 0.748 ± 0.53; in that of MVSPPLNTSIYLIPCSSLCD, -0.407 ± 0.25; in that of MVVVLLVD, -0.438 ± 0.9. MVVWWRHKVLKGHWL returned an amyloid nucleation score of -0.189 ± 0.61. In the case of MWVFKTFCRRQRASVPNSLG, the amyloid nucleation score amounted to 0.034 ± 0.27. On to MWVNLVWTAFLYKSILCRVF, for which the amyloid nucleation score is 0.38 ± 1.2. Turning to MWWCGSHSFSFYFRLRSDWR, the amyloid nucleation score was found to be 0.829 ± 1. As to MYGLVLCIYVSHVVR, the amyloid nucleation score came to 1.54 ± 0.43. MYIKRTGQTGWAVGGSRTPR returned an amyloid nucleation score of 1.11 ± 0.65.

Consider MYISYSLNKTPIVFAPCTVH, for which the amyloid nucleation score is -0.018 ± 0.48. MYQVHTVSTVKIEMAYHAQG registered an amyloid nucleation score of 1.67 ± 0.26. Substance MYRDDAGFEGMF returned an amyloid nucleation score of 1.19 ± 0.61.

With MYRQTEGLVRFKGRGPFKVE, the amyloid nucleation score was 0.355 ± 0.4.

Substance MYSISCIVNY displayed an amyloid nucleation score of 2.56 ± 0.15.

MYTSDHNSGVASMCIVVGFF showed an amyloid nucleation score of 3.76 ± 0.08. In the case of NACIPQVFCGSLLKFALQLW it was 3.28 ± 0.088.

NALYSWAPLDCIMPRIVS had an amyloid nucleation score of 0.299 ± 0.47. NANINFSNTMQADVL yielded an amyloid nucleation score of 0.116 ± 0.31. Under NARVILCVVFILGAMTRLGL stands -0.549 ± 0.65. Substance NASSLVRTDCHSMRKESSMR displayed an amyloid nucleation score of 0.052 ± 0.4.

In turn, NASYVNIKYRNRGN yielded an amyloid nucleation score of 4.53 ± 0.082. With NCCCEAKTWRLIDCIITIVI, the amyloid nucleation score turned out to be 0.711 ± 0.13. For NCDLECQSLRAYGLSCKKSR, the amyloid nucleation score was -0.22 ± 0.43. NCERVTDYELIRGSSILKVV had an amyloid nucleation score of 0.311 ± 0.73. In the case of NCFIKDAMVMSSRMYSGNMI, the amyloid nucleation score result is “inactive”. NCFRFCRQLLTAEDDVMCLP came in with an amyloid nucleation score of 0.117 ± 0.81. For the substance NCGNMAATSFVNEIYL, the amyloid nucleation score result is “inactive”. In turn, NCGSVFFYGPIVGFHRLGLV yielded an amyloid nucleation score of 0.967 ± 0.44. Regarding NCKFEKSLKPPHGPYNGNQY, the amyloid nucleation score is 0.292 ± 0.42.

As to NCLDGGMFRYIKVYRSRYSS, the amyloid nucleation score turned out to be 0.209 ± 0.2.

With NCTKSSWYGCYT, the amyloid nucleation score was -0.287 ± 0.35.

For NCVTL, the amyloid nucleation score entry was “inactive”. Under NDGPNSIIYFYMIFI stands 4.58 ± 0.12; under NDRLLMVRYILHFESNAMTW, 0.794 ± 0.38; under NDSACIRRSIGSHSFSSCSV, 0.766 ± 0.84.

As for NDTLGSCLDNSLQSGSWWLR, the amyloid nucleation score was found to be 0.276 ± 0.39. As to NDTNI, the amyloid nucleation score came to 0.175 ± 1.1. In the case of NDYNWKYGFLRWCVLYEVM, the amyloid nucleation score turned out to be 0.117 ± 0.4. Consider NEDAPFMVTSKVVSGT, for which the amyloid nucleation score came out at 0.176 ± 0.34. Substance NEFEVCG displayed an amyloid nucleation score of 0.108 ± 0.25. The substance NFAWYNSTQFITTCRVTYSE registered an amyloid nucleation score of 1.86 ± 0.17. As to NFGLRRYSNARMGMDCGWLC, the amyloid nucleation score is -0.011 ± 0.45. The substance NFIRKPFGFIY showed an amyloid nucleation score of -0.282 ± 1.7. Turning to NFIVVMCTIMNLCYKAQPNE, the amyloid nucleation score result is “inactive”. NFLFCFCHYCIWKVCTVAGC registered an amyloid nucleation score of -0.073 ± 0.45.

Substance NFMEYYKIRVMCWANR gave an amyloid nucleation score of 0.616 ± 0.29. NFMYTYTVTLRRGYGEVSCA registered an amyloid nucleation score of -0.071 ± 0.6. In the case of NFNCLVTDAFYFRGWKCLDR it was 4.9 ± 0.12; in that of NFNFFRRCLGSPYNRPEWID, -0.066 ± 0.42; in that of NFPLVSFFTNCSNKE, “inactive”.

NFPVPLRNDLKLAFMQNLNS had an amyloid nucleation score of -0.531 ± 0.3.

Source of the values: the supplement of paper PMC12042874.
